Measured values taken from US20020107196A1.

Biological target: human CXCR4 receptor (human)
Assay: cell-based or functional assay

Chain of stromal cell derived factor-1α (SDF-1α) (ligand) (chain): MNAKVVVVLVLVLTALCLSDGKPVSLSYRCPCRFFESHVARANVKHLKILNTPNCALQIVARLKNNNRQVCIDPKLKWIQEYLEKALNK

Substance: stromal cell derived factor-1α (SDF-1α) (ligand)
- EC50 of HUVEC migration (Transwell chemotaxis): 10 to 20 nM
- elevation of [Ca+2]i in HUVEC (fura-2 fluorescence); concentration of maximal response: 100 nM
- percent migration of input EC (Transwell chemotaxis): 40%
